Assay results taken from PMC4417048 (Nature cell biology, 2015).

B1: Vps52 (endogenous, human cells) (natural protein)
chain: MAAAATMAAAARELVLRAGTSDMEEEEGPLAGGPGLQEPLQLGELDITSDEFILDEVDVHIQANLEDELVKEALKTGVDLRHYSKQVELELQQIEQKSIRDYIQESENIASLHNQITACDAVLERMEQMLGAFQSDLSSISSEIRTLQEQSGAMNIRLRNRQAVRGKLGELVDGLVVPSALVTAILEAPVTEPRFLEQLQELDAKAAAVREQEARGTAACADVRGVLDRLRVKAVTKIREFILQKIYSFRKPMTNYQIPQTALLKYRFFYQFLLGNERATAKEIRDEYVETLSKIYLSYYRSYLGRLMKVQYEEVAEKDDLMGVEDTAKKGFFSKPSLRSRNTIFTLGTRGSVISPTELEAPILVPHTAQRGEQRYPFEALFRSQHYALLDNSCREYLFICEFFVVSGPAAHDLFHAVMGRTLSMTLKHLDSYLADCYDAIAVFLCIHIVLRFRNIAAKRDVPALDRYWEQVLALLWPRFELILEMNVQSVRSTDPQRLGGLDTRPHYITRRYAEFSSALVSINQTIPNERTMQLLGQLQVEVENFVLRVAAEFSSRKEQLVFLINNYDMMLGVLMERAADDSKEVESFQQLLNARTQEFIEELLSPPFGGLVAFVKEAEALIERGQAERLRGEEARVTQLIRGFGSSWKSSVESLSQDVMRSFTNFRNGTSIIQGALTQLIQLYHRFHRVLSQPQLRALPARAELINIHHLMVELKKHKPNF
B2: Ang2 (endogenous, human cells) (natural protein)
chain: MAAAAAAGPSPGSGPGDSPEGPEGEAPERRRKAHGMLKLYYGLSEGEAAGRPAGPDPLDPTDLNGAHFDPEVYLDKLRRECPLAQLMDSETDMVRQIRALDSDMQTLVYENYNKFISATDTIRKMKNDFRKMEDEMDRLATNMAVITDFSARISATLQDRHERITKLAGVHALLRKLQFLFELPSRLTKCVELGAYGQAVRYQGRAQAVLQQYQHLPSFRAIQDDCQVITARLAQQLRQRFREGGSGAPEQAECVELLLALGEPAEELCEEFLAHARGRLEKELRNLEAELGPSPPAPDVLEFTDHGGSGFVGGLCQVAAAYQELFAAQGPAGAEKLAAFARQLGSRYFALVERRLAQEQGGGDNSLLVRALDRFHRRLRAPGALLAAAGLADAATEIVERVARERLGHHLQGLRAAFLGCLTDVRQALAAPRVAGKEGPGLAELLANVASSILSHIKASLAAVHLFTAKEVSFSNKPYFRGEFCSQGVREGLIVGFVHSMCQTAQSFCDSPGEKGGATPPALLLLLSRLCLDYETATISYILTLTDEQFLVQDQFPVTPVSTLCAEARETARRLLTHYVKVQGLVISQMLRKSVETRDWLSTLEPRNVRAVMKRVVEDTTAIDVQVGLLYEEGVRKAQSSDSSKRTFSVYSSSRQQGRYAPSYTPSAPMDTNLLSNIQKLFSERIDVFSPVEFNKVSVLTGIIKISLKTLLECVRLRTFGRFGLQQVQVDCHFLQLYLWRFVADEELVHLLLDEVVASAALRCPDPVPMEPSVVEVICERG

How the values were obtained:
[1] = target: Syndetin (endogenous, human cells) (human (endogenous in H4 and HeLa)) (UniProt Q96JG6); assay: sedimentation velocity on glycerol gradients + SEC
[2] = target: T1, Syndetin (endogenous, human cells) (human (endogenous in H4 and HeLa), UniProt Q96JG6-1 1-964); assay: sedimentation velocity on glycerol gradients + SEC
T1 sequence: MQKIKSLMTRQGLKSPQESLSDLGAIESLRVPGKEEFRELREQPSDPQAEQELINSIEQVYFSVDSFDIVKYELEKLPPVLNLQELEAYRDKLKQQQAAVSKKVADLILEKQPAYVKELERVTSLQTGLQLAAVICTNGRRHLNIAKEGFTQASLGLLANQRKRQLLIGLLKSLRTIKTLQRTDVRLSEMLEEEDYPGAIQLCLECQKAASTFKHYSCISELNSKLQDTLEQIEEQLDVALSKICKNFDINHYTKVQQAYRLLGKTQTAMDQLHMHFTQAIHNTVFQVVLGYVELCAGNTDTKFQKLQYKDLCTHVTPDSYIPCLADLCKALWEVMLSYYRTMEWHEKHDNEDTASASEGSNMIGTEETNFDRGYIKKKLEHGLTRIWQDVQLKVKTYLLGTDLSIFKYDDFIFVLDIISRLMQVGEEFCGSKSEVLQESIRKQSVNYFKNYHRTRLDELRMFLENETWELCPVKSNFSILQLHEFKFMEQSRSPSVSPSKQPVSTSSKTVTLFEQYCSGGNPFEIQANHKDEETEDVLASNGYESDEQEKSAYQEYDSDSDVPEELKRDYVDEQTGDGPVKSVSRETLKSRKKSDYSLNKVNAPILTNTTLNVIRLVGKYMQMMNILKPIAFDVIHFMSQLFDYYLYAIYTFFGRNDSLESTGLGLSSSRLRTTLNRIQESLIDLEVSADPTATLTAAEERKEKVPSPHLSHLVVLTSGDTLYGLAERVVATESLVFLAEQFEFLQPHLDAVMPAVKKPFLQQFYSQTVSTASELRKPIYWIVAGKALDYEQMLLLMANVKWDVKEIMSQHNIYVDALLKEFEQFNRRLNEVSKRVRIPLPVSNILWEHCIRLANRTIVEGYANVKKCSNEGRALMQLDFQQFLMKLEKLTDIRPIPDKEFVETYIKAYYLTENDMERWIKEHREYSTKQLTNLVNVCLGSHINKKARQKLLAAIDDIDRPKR

Molecule | stoichiometry N [1] | stoichiometry N [2]
Vps53 (endogenous, human cells) (from UniProt Q5VIR6 1-832) (natural protein) | 1 | –
B1 | – | 1
B2 | – | 1
